# B1: Cysteine-rich protein 2 (CRP2), recombinant mouse, full length, with (His)6 tag at the C-terminus (natural protein)
# chain: MPVWGGGNKCGACGRTVYHAEEVQCDGRSFHRCCFLCMVCRKNLDSTTVAIHDEEIYCKSCYGKKYGPKGYGYGQGAGTLNMDRGERLGIKPESAQPHRPTTNPNTSKFAQKYGGAEKCSRCGDSVYAAEKIIGAGKPWHKNCFRCAKCGKSLESTTLTEKEGEIYCKGCYAKNFGPKGFGYGQGAGALVHAQ
# Target: Actin protein (from Bovine skeletal muscle), polymerised to F-actin (bovine, UniProt P68138 1-377)
# Assay: cell-based or functional assay
binder,measurement,value
B1,SAXS decreasing ratio d (0.01 < Q < 0.016) of F-actin; F-actin:CRP2 ratio 1:0 to 1:4.6 (d 1.4 to 3.4),3.4
